Source: patent US20230272055A1 (Incyte, published 2023)

What follows are binders tested against T1, Recombinant MBP-mutCALR Type 1 fusion protein (human) (assay: SPR, IgG captured, 1:1 fit, Exp. 2).
T1 construct: custom made at Cepter; also called recombinant mutCALR protein
Description: Experiment 2: Recombinant MBP-mutCALR Type 1 fusion protein was custom made at Cepter (cepterbiopartners.com). Data for the interaction of antibodies with recombinant mutCALR protein were collected at 25° C. on a Biacore 8K instrument (Cytiva, Marlborough, Mass.), and all reagents were obtained from Cytiva unless otherwise specified. The experiments were conducted using Tris-buffered saline (pH 7.2), 0.005% Surfactant P20, 1 mM CaCl₂) as running buffer. To prepare the capture surfaces, anti-human IgG (Fc) antibodies (Product #29234600) was amine-coupled onto a CM4 chip (Product #BR100534) under standard conditions using an Amine Coupling Kit (Product #BR100050). […] The kinetics parameters were obtained by applying 1:1 binding model to fit the data from multiple-cycle injection experiments using Biacore Insight Evaluation software.

Binder	Kd	koff	kon
anti-mutCALR antibody clone 75 (antibody, human IgG1, lambda, N297A, V domains shown, human IgG1 N297A variant of clone 6) VH: EVQLVQSGAEVKKPGASVKVSCKVSGYTLTELSMQWVRQAPGKGLEWMGGFDPDDGETMYAEKFQGRLTVTEDTSTDTVYMELRSLTSEDTALYFCATSPGYDFFDYWGQGTLVTVSS VL: SYVLTQPPSVSVAPGKTARITCGGNNIGSKSVHWYQQKPGQAPVLVVYDDSDRPSGIPERFSGSNSGNTATLTISRVEAGDEADYYCQVWDSSNDLLIFGGGTKLTVLG	0.637 nM	0.0039 s⁻¹	6.12e+06 M⁻¹ s⁻¹
anti-mutCALR antibody clone 76 (antibody, human IgG1, lambda, N297A, V domains shown, human IgG1 N297A variant of clone 6) VH: EVQLVQSGAEVKKPGASVKVSCKVSGYTLTELSMQWVRQAPGKGLEWMGGFDPDAGETMYAEKFQGRLTVTEDTSTDTVYMELRSLTSEDTALYFCATSPGYDFFDYWGQGTLVTVSS VL: SYVLTQPPSVSVAPGKTARITCGGNNIGSKSVHWYQQKPGQAPVLVVYDDSDRPSGIPERFSGSNSGNTATLTISRVEAGDEADYYCQVWDSSNDLLIFGGGTKLTVLG	4.9 nM	0.0155 s⁻¹	3.16e+06 M⁻¹ s⁻¹
anti-mutCALR antibody clone 77 (antibody, human IgG1, lambda, N297A, V domains shown, human IgG1 N297A variant of clone 6) VH: EVQLVQSGAEVKKPGASVKVSCKVSGYTLTELSMQWVRQAPGKGLEWMGGFDPDSGETMYAEKFQGRLTVTEDTSTDTVYMELRSLTSEDTALYFCATSPGYDFFDYWGQGTLVTVSS VL: SYVLTQPPSVSVAPGKTARITCGGNNIGSKSVHWYQQKPGQAPVLVVYDDSDRPSGIPERFSGSNSGNTATLTISRVEAGDEADYYCQVWDSSNDLLIFGGGTKLTVLG	5.61 nM	0.0175 s⁻¹	3.13e+06 M⁻¹ s⁻¹
anti-mutCALR antibody clone 78 (antibody, human IgG1, lambda, N297A, V domains shown, human IgG1 N297A variant of clone 6) VH: EVQLVQSGAEVKKPGASVKVSCKVSGYTLTELSMQWVRQAPGKGLEWMGGFDPDEGETMYAEKFQGRLTVTEDTSTDTVYMELRSLTSEDTALYFCATSPGYDFFDYWGQGTLVTVSS VL: SYVLTQPPSVSVAPGKTARITCGGNNIGSKSVHWYQQKPGQAPVLVVYDDSDRPSGIPERFSGSNSGNTATLTISRVEAGDEADYYCQVWDSSNDLLIFGGGTKLTVLG	2.75 nM	0.0024 s⁻¹	873000 M⁻¹ s⁻¹
anti-mutCALR antibody clone 79 (antibody, human IgG1, lambda, N297A, V domains shown, human IgG1 N297A variant of clone 6) VH: EVQLVQSGAEVKKPGASVKVSCKVSGYTLTELSMQWVRQAPGKGLEWMGGFDPDDAETMYAEKFQGRLTVTEDTSTDTVYMELRSLTSEDTALYFCATSPGYDFFDYWGQGTLVTVSS VL: SYVLTQPPSVSVAPGKTARITCGGNNIGSKSVHWYQQKPGQAPVLVVYDDSDRPSGIPERFSGSNSGNTATLTISRVEAGDEADYYCQVWDSSNDLLIFGGGTKLTVLG	1.39 nM	0.00631 s⁻¹	4.53e+06 M⁻¹ s⁻¹
anti-mutCALR antibody clone 80 (antibody, human IgG1, lambda, N297A, V domains shown, human IgG1 N297A variant of clone 6) VH: EVQLVQSGAEVKKPGASVKVSCKVSGYTLTELSMQWVRQAPGKGLEWMGGFDPDDGETMYAEKFQGRLTVTEDTSTDTVYMELSSLRSEDTAVYFCATSPGYDFFDYWGQGTLVTVSS VL: SYVLTQPPSVSVAPGKTARITCGGNNIGSKSVHWYQQKPGQAPVLVVYDDSDRPSGIPERFSGSNSGNTATLTISRVEAGDEADYYCQVWDSSNDLLIFGGGTKLTVLG	0.638 nM	0.00248 s⁻¹	–
anti-mutCALR antibody clone 81 (antibody, human IgG1, lambda, N297A, V domains shown, human IgG1 N297A variant of clone 6) VH: EVQLVQSGAEVKKPGASVKVSCKVSGYTLTELSMQWVRQAPGKGLEWMGGFDPDAGETMYAEKFQGRLTVTEDTSTDTVYMELSSLRSEDTAVYFCATSPGYDFFDYWGQGTLVTVSS VL: SYVLTQPPSVSVAPGKTARITCGGNNIGSKSVHWYQQKPGQAPVLVVYDDSDRPSGIPERFSGSNSGNTATLTISRVEAGDEADYYCQVWDSSNDLLIFGGGTKLTVLG	6.62 nM	0.00494 s⁻¹	746000 M⁻¹ s⁻¹
anti-mutCALR antibody clone 82 (antibody, human IgG1, lambda, N297A, V domains shown, human IgG1 N297A variant of clone 6) VH: EVQLVQSGAEVKKPGASVKVSCKVSGYTLTELSMQWVRQAPGKGLEWMGGFDPDSGETMYAEKFQGRLTVTEDTSTDTVYMELSSLRSEDTAVYFCATSPGYDFFDYWGQGTLVTVSS VL: SYVLTQPPSVSVAPGKTARITCGGNNIGSKSVHWYQQKPGQAPVLVVYDDSDRPSGIPERFSGSNSGNTATLTISRVEAGDEADYYCQVWDSSNDLLIFGGGTKLTVLG	6.23 nM	0.00475 s⁻¹	762000 M⁻¹ s⁻¹
anti-mutCALR antibody clone 83 (antibody, human IgG1, lambda, N297A, V domains shown, human IgG1 N297A variant of clone 6) VH: EVQLVQSGAEVKKPGASVKVSCKVSGYTLTELSMQWVRQAPGKGLEWMGGFDPDEGETMYAEKFQGRLTVTEDTSTDTVYMELSSLRSEDTAVYFCATSPGYDFFDYWGQGTLVTVSS VL: SYVLTQPPSVSVAPGKTARITCGGNNIGSKSVHWYQQKPGQAPVLVVYDDSDRPSGIPERFSGSNSGNTATLTISRVEAGDEADYYCQVWDSSNDLLIFGGGTKLTVLG	1.76 nM	0.00992 s⁻¹	5.62e+06 M⁻¹ s⁻¹
anti-mutCALR antibody clone 84 (antibody, human IgG1, lambda, N297A, V domains shown, human IgG1 N297A variant of clone 6) VH: EVQLVQSGAEVKKPGASVKVSCKVSGYTLTELSMQWVRQAPGKGLEWMGGFDPDDAETMYAEKFQGRLTVTEDTSTDTVYMELSSLRSEDTAVYFCATSPGYDFFDYWGQGTLVTVSS VL: SYVLTQPPSVSVAPGKTARITCGGNNIGSKSVHWYQQKPGQAPVLVVYDDSDRPSGIPERFSGSNSGNTATLTISRVEAGDEADYYCQVWDSSNDLLIFGGGTKLTVLG	2.01 nM	0.0018 s⁻¹	892000 M⁻¹ s⁻¹
anti-mutCALR antibody clone 124 (antibody, human IgG1, lambda, N297A, human IgG1 N297A variant of clone 15) heavy: not shown light: SYELTQPPSVSVAPGKTARITCGGDNIGSKSVHWYQQKPGQAPVLVVYDDSDRPSGIPERFSGSNSGNTATLTINRVEAGDEADYYCQVWDSSNDLLIFGGGTKLTVLGQPKAAPSVTLFPPSSEELQANKATLVCLISDFYPGAVTVAWKADSSPVKAGVETTTPSKQSNNKYAASSYLSLTPEQWKSHRSYSCQVTHEGSTVEKTVAPTECS	1.04 nM	0.00128 s⁻¹	1.23e+06 M⁻¹ s⁻¹
anti-mutCALR antibody clone 125 (antibody, human IgG1, lambda, N297A, V domains shown, human IgG1 N297A variant of clone 15) VH: EVQLVQSGAEVKKPGASVKVSCKVSGYTLTELSMQWVRQAPGKGLEWMGGFDPDAGETMYAEKFQGRLTVTEDTSTDTVYMELRSLTSEDTALYFCATSPGYDFFDYWGQGTLVTVSS VL: SYELTQPPSVSVAPGKTARITCGGDNIGSKSVHWYQQKPGQAPVLVVYDDSDRPSGIPERFSGSNSGNTATLTINRVEAGDEADYYCQVWDSSNDLLIFGGGTKLTVLG	4.76 nM	0.0154 s⁻¹	3.23e+06 M⁻¹ s⁻¹
anti-mutCALR antibody clone 126 (antibody, human IgG1, lambda, N297A, V domains shown, human IgG1 N297A variant of clone 15) VH: EVQLVQSGAEVKKPGASVKVSCKVSGYTLTELSMQWVRQAPGKGLEWMGGFDPDSGETMYAEKFQGRLTVTEDTSTDTVYMELRSLTSEDTALYFCATSPGYDFFDYWGQGTLVTVSS VL: SYELTQPPSVSVAPGKTARITCGGDNIGSKSVHWYQQKPGQAPVLVVYDDSDRPSGIPERFSGSNSGNTATLTINRVEAGDEADYYCQVWDSSNDLLIFGGGTKLTVLG	1.19 nM	0.00153 s⁻¹	1.29e+06 M⁻¹ s⁻¹
anti-mutCALR antibody clone 128 (antibody, human IgG1, lambda, N297A, V domains shown, human IgG1 N297A variant of clone 15) VH: EVQLVQSGAEVKKPGASVKVSCKVSGYTLTELSMQWVRQAPGKGLEWMGGFDPDDAETMYAEKFQGRLTVTEDTSTDTVYMELRSLTSEDTALYFCATSPGYDFFDYWGQGTLVTVSS VL: SYELTQPPSVSVAPGKTARITCGGDNIGSKSVHWYQQKPGQAPVLVVYDDSDRPSGIPERFSGSNSGNTATLTINRVEAGDEADYYCQVWDSSNDLLIFGGGTKLTVLG	1.61 nM	0.00207 s⁻¹	1.29e+06 M⁻¹ s⁻¹
anti-mutCALR antibody clone 129 (antibody, human IgG1, lambda, N297A, V domains shown, human IgG1 N297A variant of clone 15) VH: EVQLVQSGAEVKKPGASVKVSCKVSGYTLTELSMQWVRQAPGKGLEWMGGFDPDDGETMYAEKFQGRLTVTEDTSTDTVYMELSSLRSEDTAVYFCATSPGYDFFDYWGQGTLVTVSS VL: SYELTQPPSVSVAPGKTARITCGGDNIGSKSVHWYQQKPGQAPVLVVYDDSDRPSGIPERFSGSNSGNTATLTINRVEAGDEADYYCQVWDSSNDLLIFGGGTKLTVLG	0.53 nM	0.00527 s⁻¹	9.94e+06 M⁻¹ s⁻¹
anti-mutCALR antibody clone 130 (antibody, human IgG1, lambda, N297A, V domains shown, human IgG1 N297A variant of clone 15) VH: EVQLVQSGAEVKKPGASVKVSCKVSGYTLTELSMQWVRQAPGKGLEWMGGFDPDAGETMYAEKFQGRLTVTEDTSTDTVYMELSSLRSEDTAVYFCATSPGYDFFDYWGQGTLVTVSS VL: SYELTQPPSVSVAPGKTARITCGGDNIGSKSVHWYQQKPGQAPVLVVYDDSDRPSGIPERFSGSNSGNTATLTINRVEAGDEADYYCQVWDSSNDLLIFGGGTKLTVLG	4.71 nM	0.00509 s⁻¹	1.08e+06 M⁻¹ s⁻¹
anti-mutCALR antibody clone 131 (antibody, human IgG1, lambda, N297A, V domains shown, human IgG1 N297A variant of clone 15) VH: EVQLVQSGAEVKKPGASVKVSCKVSGYTLTELSMQWVRQAPGKGLEWMGGFDPDSGETMYAEKFQGRLTVTEDTSTDTVYMELSSLRSEDTAVYFCATSPGYDFFDYWGQGTLVTVSS VL: SYELTQPPSVSVAPGKTARITCGGDNIGSKSVHWYQQKPGQAPVLVVYDDSDRPSGIPERFSGSNSGNTATLTINRVEAGDEADYYCQVWDSSNDLLIFGGGTKLTVLG	4.83 nM	0.00481 s⁻¹	996000 M⁻¹ s⁻¹
anti-mutCALR antibody clone 132 (antibody, human IgG1, lambda, N297A, V domains shown, human IgG1 N297A variant of clone 15) VH: EVQLVQSGAEVKKPGASVKVSCKVSGYTLTELSMQWVRQAPGKGLEWMGGFDPDEGETMYAEKFQGRLTVTEDTSTDTVYMELSSLRSEDTAVYFCATSPGYDFFDYWGQGTLVTVSS VL: SYELTQPPSVSVAPGKTARITCGGDNIGSKSVHWYQQKPGQAPVLVVYDDSDRPSGIPERFSGSNSGNTATLTINRVEAGDEADYYCQVWDSSNDLLIFGGGTKLTVLG	2.16 nM	0.00244 s⁻¹	1.13e+06 M⁻¹ s⁻¹
anti-mutCALR antibody clone 133 (antibody, human IgG1, lambda, N297A, V domains shown, human IgG1 N297A variant of clone 15) VH: EVQLVQSGAEVKKPGASVKVSCKVSGYTLTELSMQWVRQAPGKGLEWMGGFDPDDAETMYAEKFQGRLTVTEDTSTDTVYMELSSLRSEDTAVYFCATSPGYDFFDYWGQGTLVTVSS VL: SYELTQPPSVSVAPGKTARITCGGDNIGSKSVHWYQQKPGQAPVLVVYDDSDRPSGIPERFSGSNSGNTATLTINRVEAGDEADYYCQVWDSSNDLLIFGGGTKLTVLG	0.826 nM	0.00702 s⁻¹	8.51e+06 M⁻¹ s⁻¹
